Source: US4614714A

Substrate: N[C@@H](CC(=O)O)C(=O)O
Assay: purified protein, by the assay type
Conditions: other: pH 7.4, 30.0 °C
Method: The concentration of each substrate was 10 mM, and the reactions were carried out at pH 7.4 (0.1 M potassium phosphate buffer) and pH 6.0 (0.1 M acetate buffer).
That is, 1 ml of 0.1 M potassium phosphate buffer (pH 7.4) containing 10 mM sodium L-glutamate was charged into an oxygen electrode cell and 10 μl of an enzyme solution was added thereto to measure the oxygen consumption rate. One unit of enzyme was determined as the amount of enzyme which consumes 1μ mol of oxygen per minute at 30° C. in the absence of catalase (unit: hereinafter abbreviated as "U").

B1: novel L-glutamic acid oxidase (Streptomyces sp.) (protein)
chain 1: ANEMTYEQLARELLLVGPAPTNEDLKLRYLDVLIDNGLNPPGPPKRILIVGAGIAGLVAGDLLTRAGHDVTILEANANRVGGRIKTFHAKKGEPSPFADPAQYAEAGAMRLPSFHPLTLALIDKLGLKRRLFFNVDIDPQTGNQDAPVPPVFYKSFKDGKTWTNGAPSPEFKEPDKRNHTWIRTNREQVRRAQYATDPSSINEGFHLTGCETRLTVSDMVNQALEPVRDYYSVKQDDGTRVNKPFKEWLAGWADVVRDFDGYSMGRFLREYAEFSDEAVEAIGTIENMTSRLHLAFFHSFLGRSDIDPRATYWEIEGGSRMLPETLAKDLRDQIVMGQRMVRLEYYDPGRDGHHGELTGPGGPAVAIQTVPEGEPY
chain 2: AATQTWTGDLAIVTIPFSSLRFVKVTPPFSYKKRRAVIETHYDQATKVLLEFSRRWWEFTEADWKRELDAIAPGLYDYYQQWGEDDAEAALALPQSVRNLPTGLLGAHPSVDESRIGEEQVEYYRNSELR
chain 3: GGVRPATNAYGGGSTTDNPNRFMYYPSHPVPGTQGGVVLAAYSWSDDAARWDSFDDAERYGYALENLQSVHGRRIEVFYTGAGQTQSWLRDPYACGEAAVYTPHQMTAFHLDVVRPEGPVYFAGEHVSLKHAWIEGAVETAVRAAIAVNEAPVGDTGVTAAAGRRGAAAATEPMREEALTS
Question: B1 was tested. Which Km did it give?
Answer: 29 mM
